Laboratory results: article PMC11764276 (Molecular Therapy, 2024)

What was measured:
[1] = target: T1, RBD (residues 334–527 of the SARS-CoV-2 spike glycoprotein) (SARS-CoV-2, wild type (Wuhan-Hu-1 / …, UniProt P0DTC2)); experiment: cell-based or functional assay
[2] = target: T1, RBD (residues 334–527 of the SARS-CoV-2 …); experiment: SPR; Biacore 8k; antibody captured on a Series S Protein A chip to ~200 RU or greater; 4X serially diluted RBD starting at 1,000 nM flowed at 50 uL/min, 120 s contact, 600 s dissociation; HBS-EP+ buffer; 1:1 Langmuir fitting, steady state analysis, or two-state reaction fitting; conditions: both partners purified
[3] = target: T1, RBD (residues 334–527 of the SARS-CoV-2 …); experiment: ELISA; plates coated with anti-his antibody, 10 ug/mL COV2_RBD-his captured; antibody from 8 ug/mL, 5X dilution series, in duplicate, 1 h at RT; anti-human-Fc-HRP detection; AUC divided by that of 2196 WT; conditions: both partners purified

B1: 2196 WT (recombinant mAb COV2-2196) (antibody, V domains shown)
VH: QMQLVQSGPEVKKPGTSVKVSCKASGFTFMSSAVQWVRQARGQRLEWIGWIVIGSGNTNYAQKFQERVTITRDMSTSTAYMELSSLRSEDTAVYYCAAPYCSSISCNDGFDIWGQGTMVTVSS
VL: not shown
notes: heavy chain of COV2-2196 (IGHV1-58); light chain of COV2-2196 (IGKV3-20); Whole human IgG (captured on Protein A, detected by anti-human Fc); HC vector with IgG VH leader (UniProt Q9Y298), LC vector with IGKV4-1 leader (UniProt P06312); also called WT 2196; COV-2196
[1]
  IC50 of neutralization of SARS-CoV-2 (USA-WA1/2020 spike) pseudovirus on HuCHOAce2 cells: 0.08 ng/mL
[2]
  Kd: 1.8 nM

B2: 2196_CDRL3_GP (antibody, V domains shown)
VH: QMQLVQSGPEVKKPGTSVKVSCKASGFTFMSSAVQWVRQARGQRLEWIGWIVIGSGNTNYAQKFQERVTITRDMSTSTAYMELSSLRSEDTAVYYCAAPYCSSISCNDGFDIWGQGTMVTVSS
VL: not shown
notes: Whole human IgG; The designs are said to be based on positions 95 and 95A, so the proline probably stands at 95A; also called DMAb-GP
[3]
  AUC ratio to 2196 WT: > 0.975
  fold change of IC50 against 2196 WT: < 2.14 fold

B3: 2196 HC + 2072 LC (antibody, V domains shown)
VH: QMQLVQSGPEVKKPGTSVKVSCKASGFTFMSSAVQWVRQARGQRLEWIGWIVIGSGNTNYAQKFQERVTITRDMSTSTAYMELSSLRSEDTAVYYCAAPYCSSISCNDGFDIWGQGTMVTVSS
VL: not shown
notes: as the heavy chain of m2; light chain of antibody 2072 (IGKV3-20, clonally related to COV2-2196); Kabat numbering; also called DMAb-2196-HC + DMAb-2072-LC
[2]
  Kd: 14.3 nM

B4: 2196_CDRL3_Q (antibody, V domains shown)
VH: QMQLVQSGPEVKKPGTSVKVSCKASGFTFMSSAVQWVRQARGQRLEWIGWIVIGSGNTNYAQKFQERVTITRDMSTSTAYMELSSLRSEDTAVYYCAAPYCSSISCNDGFDIWGQGTMVTVSS
VL: not shown
notes: Whole human IgG; also called DMAb-Q
[3]
  AUC ratio to 2196 WT: > 0.975
  fold change of IC50 against 2196 WT: < 2.14 fold

B5: DMAb-2196_AFS_(AA_NT)_var2 (antibody, V domains shown)
VH: QMQLVQSGPEVKKPGTSVKVSCKASGFTFMSSAVQWVRQARGQRLEWIGWIVIGSGNTNYAQKFQERVTITRDMSTSTAYMELSSLRSEDTAVYYCAAPYCSSISCNDGFDIWGQGTMVTVSS
VL: EVVLTQSPGTLSLSPGERATLSCRASQTISNSYVAWYQQRPGQAPRLLIYGASSRAAGIPDRFSGSGSGTDFTLTISRLEPEDFAVYYCQHYGSSRGWTFGQGTKVEIK
notes: Whole human IgG; also called AFS variant var2
[1]
  IC50 of neutralization of SARS-CoV-2 pseudovirus on HuCHOAce2 cells: 0.05 ng/mL
[2]
  Kd: 1.6 nM

B6: DMAb-2196_AFS_(AA_NT)_var3 (antibody, V domains shown)
VH: QMQLVQSGPEVKKPGTSVKVSCKASGFTFMSSAVQWVRQARGQRLEWIGWIVIGSGNTNYAQKFQERVTITRDMSTSTAYMELSSLRSEDTAVYYCAAPYCSSISCNDGFDIWGQGTMVTVSS
VL: EVVLTQSPGTLSLSPGERATLSCRASQSVSSSYLAWYQQKPGQAPRLLIFGASSRATGIPDRFSGSGSGTDFTLTITRLEPEDSAVYYCQHYGSSRGWTFGQGTKVEIK
notes: Whole human IgG; also called AFS variant var3
[1]
  IC50 of neutralization of SARS-CoV-2 pseudovirus on HuCHOAce2 cells: 0.06 ng/mL
[2]
  Kd: 3.2 nM

B7: DMAb-2196_des2_GP (antibody, V domains shown)
VH: QMQLVQSGPEVKKPGTSVKVSCKASGFTFMSSAVQWVRQARGQRLEWIGWIVIGSGNTNYAQKFQERVTITRDMSTSTAYMELSSLRSEDTAVYYCAAPYCSSISCNDGFDIWGQGTMVTVSS
VL: EIVLTQSPGTLSLSPGERATLSCRASQTISNSYVAWYQQKPGQAPRLLIYGASSRATGIPDRFSGSGSGTDFTLTISRLEPEDFAVYYCQHYGSSGPWTFGQGTKVEIK
notes: Whole human IgG; also called DMAb-Des2_GP
[2]
  binding result: binds

B8: 2196_CDRL1_des2 (antibody, V domains shown)
VH: QMQLVQSGPEVKKPGTSVKVSCKASGFTFMSSAVQWVRQARGQRLEWIGWIVIGSGNTNYAQKFQERVTITRDMSTSTAYMELSSLRSEDTAVYYCAAPYCSSISCNDGFDIWGQGTMVTVSS
VL: EIVLTQSPGTLSLSPGERATLSCRASQTISNSYVAWYQQKPGQAPRLLIYGASSRATGIPDRFSGSGSGTDFTLTISRLEPEDFAVYYCQHYGSSRGWTFGQGTKVEIK
notes: as the heavy chain of m2; as the light chain of m2, with the CDRL1 and CDRL1-adjacent residues of alphamod1 but residues 31 and 32 kept as in 2196 WT; Kabat numbering; Whole human IgG; also called DMAb-Des2; DMAb-2196_Des2
[3]
  AUC ratio to 2196 WT: > 0.975
  fold change of IC50 against 2196 WT: < 2.14 fold
